The results in this text go back to publication PMC11921375, “Phenanthrene degradation by a flavoprotein monooxygenase from Phanerodontia chrysosporium” (Applied and Environmental Microbiology, 2025).

The subject of data set [1] is T1, FPMO11 (flavoprotein monooxygenase 11).
T1 construct: full-length, C-terminal 6xHis, pET21a, E. coli BL21; FAD flavoprotein
In words: NAD(P)H oxidation at […] nm, initial velocity. In kind it is biochemical, Phanerodontia chrysosporium. The conditions noted are these: apparent, 50 mM HEPES-NaOH pH 7.0, 30°C.

Data set [2] concerns the target T2, NahG (salicylate 1-monooxygenase) (Pseudomonas putida, UniProt P23262).
T2 construct: full-length synthetic gene, C-terminal 6xHis, pET21a, E. coli BL21
T2 sequence (P23262 2-434): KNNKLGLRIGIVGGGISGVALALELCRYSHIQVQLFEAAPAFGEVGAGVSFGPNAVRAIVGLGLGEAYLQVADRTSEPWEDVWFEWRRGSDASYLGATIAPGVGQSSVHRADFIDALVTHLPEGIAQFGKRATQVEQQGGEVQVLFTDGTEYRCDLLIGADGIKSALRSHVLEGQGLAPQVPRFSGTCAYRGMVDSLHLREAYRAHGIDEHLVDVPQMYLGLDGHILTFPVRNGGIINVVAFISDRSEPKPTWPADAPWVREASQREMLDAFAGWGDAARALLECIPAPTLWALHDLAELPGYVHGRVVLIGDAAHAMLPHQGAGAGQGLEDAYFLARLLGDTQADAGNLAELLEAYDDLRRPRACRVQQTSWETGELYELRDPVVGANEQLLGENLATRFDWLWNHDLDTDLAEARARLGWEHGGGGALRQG
In words: NAD(P)H oxidation at […] nm, initial velocity. Conditions: apparent; co-substrate NADH varied, aromatic substrate not stated; 50 mM HEPES pH 8.0, 30°C. In kind it is biochemical.

Data set [3] has as its system T3, IDD2 (intradiol dioxygenase 2).
T3 construct: recombinant, E. coli
In words: O2 consumption, Clark electrode; Michaelis-Menten fit. In kind it is biochemical, Phanerodontia chrysosporium. Conditions: apparent; 50 mM Tris-HCl pH 8.0, air-saturated, superoxide dismutase added.

For data set [4], the system named is T4, IDD1 (intradiol dioxygenase 1).
T4 construct: recombinant, E. coli
The data set is described as above. In kind it is biochemical, Phanerodontia chrysosporium. Conditions: apparent; 50 mM Tris-HCl pH 8.0, air-saturated, superoxide dismutase added.

Substrate in data set [5]: O=C(O)c1cc(O)ccc1O
In words: purified protein. Conditions: apparent, NAD(P)H co-substrate (NADH in results, NADPH in methods), 50 mM HEPES pH 8.0, 30°C.

Substrate in data set [6]: NC(=O)C1=CN([C@@H]2O[C@H](COP(=O)(O)OP(=O)(O)OC[C@H]3O[C@@H](n4cnc5c(N)ncnc54)[C@H](OP(=O)(O)O)[C@@H]3O)[C@@H](O)[C@H]2O)C=CC1
In words: purified protein. In kind it is biochemical, Pseudomonas putida. The conditions noted are these: apparent, co-substrate NADPH varied, aromatic substrate not stated, 50 mM HEPES pH 8.0, 30°C, varied: cofactor.

Substrate in data set [7]: O=C(O)c1ccc(Cl)cc1O
In words: purified protein. In kind it is biochemical, Pseudomonas putida. Conditions: apparent, NAD(P)H co-substrate (NADH in results, NADPH in methods), 50 mM HEPES pH 8.0, 30°C.

Substrate in data set [8]: O=C(O)c1ccc(O)cc1O
In words: purified protein. The conditions noted are these: apparent, NAD(P)H co-substrate (NADH in results, NADPH in methods), 50 mM HEPES pH 8.0, 30°C. In kind it is biochemical, Pseudomonas putida.

Substrate in data set [9]: O=C(O)c1cccc(O)c1O
In words: purified protein. In kind it is biochemical, Pseudomonas putida. The conditions noted are these: apparent, NAD(P)H co-substrate (NADH in results, NADPH in methods), 50 mM HEPES pH 8.0, 30°C.

In general, Km refers to the concentration of substrate that gives half-maximal velocity. Turning to `O=C(O)c1ccc(Cl)cc1O` [4CSA], the Km in data set [1] (NADPH co-substrate) came out at 120 ± 28 µM.
Take `NC(=O)C1=CN([C@@H]2O[C@H](COP(=O)(O)OP(=O)(O)OC[C@H]3O[C@@H](n4cnc5c(N)ncnc54)[C@H](OP(=O)(O)O)[C@@H]3O)[C@@H](O)[C@H]2O)C=CC1` [NADPH]: the Km in data set [1] (co-substrate NADPH varied, aromatic substrate not stated) was determined as 150 ± 37 µM.
Consider `O=C(O)c1ccccc1O` [SA], for which the Km in [1] (NADPH co-substrate) is 30 ± 34 µM.
For the molecule `O=C(O)c1c(O)cccc1-c1ccccc1` [2H6PB], the Km in [1] (NADPH co-substrate) is 320 ± 84 µM.
Consider `O=C(O)c1cccc(-c2ccccc2)c1O` [2H3PB], for which the Km in [1] (NADPH co-substrate) was 290 ± 67 µM.
Same read-out and setting: with `O=C(O)c1cccc(O)c1O` [2,3DHB] the figure was 67 ± 1.8 µM.
Still for that read-out and setting: under `O=C(O)c1c(O)ccc2ccccc12` [2H1N] stands 110 ± 25 µM; under `O=C(O)c1ccc(O)cc1O` [2,4DHB], 82 ± 9.7 µM.
Turning to `NC(=O)C1=CN([C@@H]2O[C@H](COP(=O)(O)OP(=O)(O)OC[C@H]3O[C@@H](n4cnc5c(N)ncnc54)[C@H](O)[C@@H]3O)[C@@H](O)[C@H]2O)C=CC1` [NADH], the Km in data set [2] was found to be 27 ± 10 µM; in [1] (co-substrate NADH varied, aromatic substrate not stated), 170 ± 60 µM.
`O=C(O)c1cc(O)ccc1O` [GA]: the Km in data set [1] (NADPH co-substrate) turned out to be 48 ± 45 µM.
For `O=C(O)c1ccc2ccccc2c1O` [1H2N], the Km in data set [1] (NADPH co-substrate) was found to be 100 ± 15 µM.
Turning to `Oc1ccc2ccccc2c1O` [1,2DHN], the Km in data set [3] was determined as 520 ± 180 µM; in data set [4], 480 ± 18 µM.

B1: NahG (salicylate 1-monooxygenase) (Pseudomonas putida) (protein)
chain: T2 sequence (P23262 2-434)
notes: full-length synthetic gene, C-terminal 6xHis, pET21a, E. coli BL21
Broadly, the kcat is the number of substrate molecules converted per active site and unit of time at saturation. A word on the kcat/Km: it is the second-order rate constant that governs catalysis at low substrate concentration. For B1, the Km turned out to be 110 ± 30 µM in [5]; 69 ± 17 µM in data set [6]; 51 ± 19 µM in data set [7]; 70 ± 15 µM in data set [8]; 120 ± 15 µM in [9]. Also, the kcat in data set [5] was determined as 7 s⁻¹; in data set [6], 1.33 ± 0.583 s⁻¹; in data set [7], 0.917 ± 0.4 s⁻¹; in data set [8] it was 5.17 ± 0.467 s⁻¹; in [9] it was 5.5 ± 0.567 s⁻¹. The kcat/Km in data set [5] came out at 61700 M⁻¹ s⁻¹; in data set [6], 20000 M⁻¹ s⁻¹; in data set [7], 18300 M⁻¹ s⁻¹; in data set [8] it was 73300 M⁻¹ s⁻¹; in data set [9], 45000 M⁻¹ s⁻¹.
